Data taken from FireProtDB (doi:10.1021/ja046667t).
Several values for one entry are separate records, joined by “and”; a condition that tells them apart may be missing. Identical values can stand only once.

Settings: pH 7, Thermal, CD, Phosphate 50 mM, whole UniProt chain shown

Protein	unfolding free energy (Pseudomonas aeruginosa (strain ATCC 15692 / DSM 22644 / CIP 104116 / JCM 14847 / LMG 12228 / 1C / PRS 101 / PAO1), 25 °C)	unfolding enthalpy (van 't Hoff) (Pseudomonas aeruginosa (strain ATCC 15692 / DSM 22644 / CIP 104116 / JCM 14847 / LMG 12228 / 1C / PRS 101 / PAO1))	unfolding enthalpy (van 't Hoff) (Hydrogenobacter thermophilus (strain DSM 6534 / IAM 12695 / TK-6), 25 °C)	unfolding enthalpy (van 't Hoff) (Hydrogenobacter thermophilus (strain DSM 6534 / IAM 12695 / TK-6))
Cytochrome c-551 wild type, P00099 (protein) MKPYALLSLLATGTLLAQGAWAEDPEVLFKNKGCVACHAIDTKMVGPAYKDVAAKFAGQAGAEAELAQRIKNGSQGVWGPIPMPPNAVSDDEAQTLAKWVLSQK	7.7 kcal/mol and 19.5 kcal/mol	70.5 kcal/mol and 159 kcal/mol	–	–
Cytochrome c-552 wild type, P15452 (protein) MKKFLLVAVVGLAGITFANEQLAKQKGCMACHDLKAKKVGPAYADVAKKYAGRKDAVDYLAGKIKKGGSGVWGSVPMPPQNVTDAEAKQLAQWILSIK	–	–	56.3 kcal/mol and 64.2 kcal/mol	109 kcal/mol and 140 kcal/mol
